US11840557B2, “Wnt7 variants capable of activating g-protein coupled receptor (Gpr)124/Reck/frizzled/lipoprotein receptor-related protein (LRP)-mediated Wnt signaling” (UNIVERSITÉ LIBRE DE BRUXELLES, priority 2018, dated 2023)

How the values were obtained:
[1] = system: Wnt7aa^−/− mutant zebrafish; assay: Transgenic endothelial expression (kdrl promoter) in Wnt7aa−/− zebrafish: hindbrain CtAs and GLUT1 staining; assay type: in vivo, Danio rerio; conditions: 60 hpf embryos
From the text: (A) Dorsal views of the cerebral vasculatures of 60 hpf WT or Wnt7aa^−/− Tg(kdrl:EGFP) embryos. In Wnt7a^−/− mutants, the intracerebral CtAs are lacking. Wnt7, Wnt7a^K190A or Wnt7a^1-278 were transiently expressed in the endothelium of Wnt7aa^−/− embryos under the control of an endothelial-specific kdrl (Vascular endothelial growth factor receptor kdr-like) promoter. The Wnt7 ligands were expressed as a biscistronic construct with BFP (Blue Fluorescent Protein) used as transgenesis marker. In contrast to uninjected embryos, Wnt7, Wnt7a^K190A or Wnt7a^1-278 restore hindbrain CtAs formation in Wnt7aa^−/− mutants as quantified in (B). (C) Anti-GLUT1 staining of the CtAs after transgenic expression of Wnt7, Wnt7a^K190A and Wnt7a^1-278 in 60 hpf Wnt7aa^−/− embryos. Transgenic expression was achieved as in (A).
Mouse Wnt7, Wnt7a^K190A and Wnt7a^1-278 were transiently expressed in the endothelium of Wnt7aa^−/− embryos under the control of an endothelial-specific kdrl (Vascular endothelial growth factor receptor kdr-like) promoter. The Wnt7 ligands were expressed as a biscistronic construct with BFP (Blue Fluorescent Protein) as transgenesis marker.

all 10 Fz genes = assay: STF luciferase assay after co-transfection with all 10 Fz genes, no Gpr124/Reck; assay type: cell-based; conditions: in the absence of Gpr124/Reck
Protocol: Cells were plated into 96-well plates and transfected after 24 h in triplicate with Lipofectamine 2000 (Invitrogen, Carlsbad, Calif.). The amount of plasmid DNA transfected per well was optimized for each expression vector: Renilla luciferase (0.5 ng), Wnt (20 ng), Fz (5 ng), LRP (2.5 ng), Gpr124 (10 ng), Reck (10 ng) unless otherwise indicated. The total amount of DNA was adjusted to 100 ng per well with the empty pCS2 vector. Cells were harvested in passive lysis buffer (E1960, Promega, Wisconsin) and the activities of the Firefly and Renilla luciferases were measured sequentially using the Dual-Luciferase Reporter Assay system (E1960, Promega, Madison, Wis.) 48 h post-transfection.

zebrafish zygote = assay type: in vivo, Danio rerio; conditions: injection in zygote, 3 dpf larvae
Protocol: (§1) The following splice-blocking morpholino (MOs) (GeneTools, Eugene, OR) were injected into embryos at the one-cell stage: wnt7aa ([…], 6 ng) (SEQ ID NO.: 123). Synthetic mRNAs were transcribed from pCS2 plasmids after NotI digestion using the mMessage mMachine SP6 Kit (Ambion, Carlsbad, CA) and injected into one-cell stage zebrafish embryo. For Xenopus laevis microinjection, 15 pg of wnt7a or wnt7a^K190A or wnt7a^1-278 mRNA were injected into one ventral blastomere of the four-cell stage embryo.
(§2) zebrafish embryos were imaged with an LSM710 confocal microscope and images were processed in ImageJ. Images of zebrafish development phenotypes were taken on Leica M165 FC. Xenopus larvae were imaged with an Olympus SZX16.

wnt7aa morphants = assay: Trunk DRG rescue in wnt7aa morphant zebrafish larvae; assay type: in vivo, Danio rerio; conditions: 100 pg mRNA injection, 72 hpf
Protocol: Zebrafish (Danio rerio) were raised and handled under standard conditions following the rules of the State of Belgium (protocol approval number: CEBEA-IBMM-2017-22:65). The following line was used: Tg(−17.0neurog1:EGFP)^w61 (McGraw et al., J. Neurosci 28(47):12558-69 (2008)).
as §1, §2

B1: Wnt7a^K190A: single-residue variant of full-length mWnt7a (precursor numbering); Gpr124/Reck-selective agonist (protein)
chain: LGASIICNKIPGLAPRQRAICQSRPDAIIVIGEGSQMGLDECQFQFRNGRWNCSALGERTVFGKELKVGSREAAFTYAIIAAGVAHAITAACTQGNLSDCGCDKEKQGQYHRDEGWKWGGCSADIRYGIGFAKVFVDAREIKQNARTLMNLHNNEAGRAILEENMKLECKCHGVSGSCTTKTCWTTLPQFRELGYVLKDKYNEAVHVEPVRASRNKRPTFLKIKKPLSYRKPMDTDLVYIEKSPNYCEEDPVTGSVGTQGRACNKTAPQASGCDLMCCGRGYNTHQYARVWQCNCKFHWCCYVKCNTCSERTEMYTCK
modifications: human Wnt7a variant K159A
- blood-brain barrier (GLUT1 expression) ([1]; anti-GLUT1 staining of CtAs): restored blood-brain barrier
- brain angiogenesis / hindbrain CtAs formation ([1]; transient endothelial expression): triggered GPR124/RECK-dependent brain angiogenesis
- signaling through any Fz (all 10 Fz genes): failed to signal through any Fz
- mRNA dose well tolerated without posteriorizing or gross anatomical alterations (zebrafish zygote): ≤ 100 pg
- DRG rescue (wnt7aa morphants): significant DRG rescues
